These results are taken from patent publication US20180044427A1 (Janssen / Centocor, published 2018).

One assay deals with T1, human FcγRI (NM_000566) (human, UniProt P12314 16-374).
T1 construct: Transiently expressed on Expi293F cells
Briefly: flow cytometry on transiently transfected Expi293F cells. How it is done: (§1) Plasmids expressing cDNAs encoding human FcγRI (NM_000566) (SEQ ID NO: 59), FcγRIIA (NM_021642) (SEQ ID NO: 60), FcγRIIB (NM_004001) (SEQ ID NO: 61), and FcγRIIIA (NM_000569) (SEQ ID NO: 62) (Origene) were transiently transfected into Expi293F cells by ExpiFectamine293 transfection kit (Life Technologies). Flow cytometry assays were performed 48 h after transfection. […] Raji cells (ATCC: CCL-86) were also employed to test the binding of anti-OX40 antibody to FcγRIIB receptor.
(§2) 2×10⁵ cells per well were seeded in 96-well plate and blocked in BSA Stain Buffer (BD Biosciences, San Jose, USA) for 30 min at 4° C. Cells were incubated with test antibody on ice for 1.5 h at 4° C. After being washed twice with BSA stain buffer, the cells were incubated with R-PE labeled anti-human or anti-mouse IgG secondary antibody (Jackson Immunoresearch Laboratories) for 45 min at 4° C. The cells were washed twice in stain buffer and then resuspended in 150 μL of Stain Buffer containing 1:200 diluted DRAQ7 live/dead stain (Cell Signaling Technology, Danvers, USA). PE and DRAQ7 signals of the stained cells were detected by Miltenyi MACSQuant flow cytometer (Miltenyi Biotec, Auburn, USA) using B2 and B4 channel respectively. Live cells were gated on DRAQ7 exclusion and the geometric mean fluorescence signals were determined for at least 10,000 live events collected. FlowJo software (Tree Star) was used for analysis. Data was plotted as the logarithm of antibody concentration versus mean fluorescence signals. Nonlinear regression analysis was performed by GraphPad Prism 6 (GraphPad Software, Inc.) and EC₅₀ values were calculated.
(§3) The binding of engineered anti-OX40 SF2 antibodies to various FcγR receptors expressed on transiently-transfected Expi293F cells were assessed by flow cytometry as described in Example 3.

The target in assay [1] is T2, human FcγRIIA (NM_021642) (human, UniProt P12318 36-317).
T2 construct: Transiently expressed on Expi293F cells
T2 sequence: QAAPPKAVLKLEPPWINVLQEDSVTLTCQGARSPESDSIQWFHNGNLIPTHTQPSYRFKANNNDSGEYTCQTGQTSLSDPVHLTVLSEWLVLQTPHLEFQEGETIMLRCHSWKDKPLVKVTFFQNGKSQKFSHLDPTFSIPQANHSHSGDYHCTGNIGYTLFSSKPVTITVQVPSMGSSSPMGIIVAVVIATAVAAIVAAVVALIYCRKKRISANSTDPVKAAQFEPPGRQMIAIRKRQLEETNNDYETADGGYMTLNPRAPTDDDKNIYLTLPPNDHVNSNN
The description is as above. As to the method:
as §1, §2, §3

Assay [2] deals with T3, human FcγRIIB (NM_004001) (human, UniProt P31994 43-310).
T3 construct: Transiently expressed on Expi293F cells
T3 sequence: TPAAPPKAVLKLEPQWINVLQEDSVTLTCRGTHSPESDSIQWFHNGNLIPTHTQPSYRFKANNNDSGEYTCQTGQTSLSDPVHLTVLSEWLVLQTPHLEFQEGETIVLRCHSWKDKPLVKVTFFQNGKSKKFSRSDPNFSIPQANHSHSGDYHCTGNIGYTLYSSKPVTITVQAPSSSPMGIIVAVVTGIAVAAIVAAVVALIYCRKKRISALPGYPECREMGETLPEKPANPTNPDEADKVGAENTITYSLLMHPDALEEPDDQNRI
The description is as above. As to the method: as §1, §2, §3

The target in assay [3] is T4, human FcγRIIIA (NM_000569) (human, UniProt P08637 17-254).
T4 construct: Transiently expressed on Expi293F cells
T4 sequence (P08637 17-254 limits assumed): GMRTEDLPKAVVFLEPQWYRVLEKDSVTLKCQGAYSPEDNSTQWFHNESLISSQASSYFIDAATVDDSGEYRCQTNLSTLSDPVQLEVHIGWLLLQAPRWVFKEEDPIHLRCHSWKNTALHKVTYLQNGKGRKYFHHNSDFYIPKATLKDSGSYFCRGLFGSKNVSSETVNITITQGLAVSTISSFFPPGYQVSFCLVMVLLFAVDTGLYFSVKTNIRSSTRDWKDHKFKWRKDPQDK
The description is as above. How it is done:
as §1, §2, §3

The target in assay [4] is T5, recombinant human FcRn extracellular domain with a poly-histidine affinity tag (FcRn-His6) (human, UniProt P55899 24-297).
T5 construct: extracellular domain
T5 sequence (P55899 24-297, form in doubt): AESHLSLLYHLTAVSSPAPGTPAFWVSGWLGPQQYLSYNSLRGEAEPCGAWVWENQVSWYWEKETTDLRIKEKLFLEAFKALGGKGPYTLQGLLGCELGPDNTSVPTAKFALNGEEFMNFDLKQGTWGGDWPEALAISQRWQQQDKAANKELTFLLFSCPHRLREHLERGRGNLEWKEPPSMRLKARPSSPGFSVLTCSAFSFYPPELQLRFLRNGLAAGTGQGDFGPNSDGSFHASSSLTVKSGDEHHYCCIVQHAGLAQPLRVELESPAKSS
Briefly: competitive binding assay on plate-captured FcRn-His6 at pH 6.0; competitor: biotinylated human IgG1 indicator antibody at 1 µg/mL. How it is done: A competitive binding assay was used to assess relative affinities of different antibody samples to a recombinant human FcRn extracellular domain with a poly-histidine affinity tag (FcRn-His6). Ninety-six-well copper-coated plates (Thermo Scientific) were used to capture FcRn-His6 at 5 μg/mL in PBS, after which plates were washed with 0.15M NaCl, 0.02% Tween 20, and then incubated with blocking reagent (0.05M MES [2-(N-morpholino) ethanesulfonic acid], 0.025% bovine serum albumin (BSA), 0.001% Tween-20, pH 6.0, 10% chemiBLOCKER (Millipore)). […] Plates were incubated at room temperature for 1 hour, washed three times as above, and then incubated with a 1:10,000 dilution of streptavidin-horseradish peroxidase (HRP) (Jackson ImmunoResearch Laboratories) at room temperature for 30 minutes to bind biotinylated antibody. Plates were washed five times as above, and bound streptavidin-HRP detected by adding TMB (3,3′,5,5′-tetramethylbenzidine) peroxidase substrate with stable stop (Fitzgerald Industries International) and incubating for 4 minutes. Color development was stopped by addition of 0.5 M HCl. Optical densities were determined with a SpectraMax Plus384 plate reader (Molecular Devices) at 450 nm wavelength.

T1 sequence (P12314 16-374 limits assumed): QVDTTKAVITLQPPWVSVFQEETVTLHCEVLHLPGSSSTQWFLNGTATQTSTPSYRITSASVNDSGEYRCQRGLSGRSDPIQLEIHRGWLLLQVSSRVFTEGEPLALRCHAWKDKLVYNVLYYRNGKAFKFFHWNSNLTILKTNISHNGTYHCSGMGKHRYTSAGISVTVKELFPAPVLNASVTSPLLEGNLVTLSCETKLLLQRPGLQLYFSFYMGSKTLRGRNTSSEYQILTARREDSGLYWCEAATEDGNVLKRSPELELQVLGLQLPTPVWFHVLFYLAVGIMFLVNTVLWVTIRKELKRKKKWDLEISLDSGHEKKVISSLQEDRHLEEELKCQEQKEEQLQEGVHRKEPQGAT

B1: OX40SF2IgG1T437R (antibody)
heavy: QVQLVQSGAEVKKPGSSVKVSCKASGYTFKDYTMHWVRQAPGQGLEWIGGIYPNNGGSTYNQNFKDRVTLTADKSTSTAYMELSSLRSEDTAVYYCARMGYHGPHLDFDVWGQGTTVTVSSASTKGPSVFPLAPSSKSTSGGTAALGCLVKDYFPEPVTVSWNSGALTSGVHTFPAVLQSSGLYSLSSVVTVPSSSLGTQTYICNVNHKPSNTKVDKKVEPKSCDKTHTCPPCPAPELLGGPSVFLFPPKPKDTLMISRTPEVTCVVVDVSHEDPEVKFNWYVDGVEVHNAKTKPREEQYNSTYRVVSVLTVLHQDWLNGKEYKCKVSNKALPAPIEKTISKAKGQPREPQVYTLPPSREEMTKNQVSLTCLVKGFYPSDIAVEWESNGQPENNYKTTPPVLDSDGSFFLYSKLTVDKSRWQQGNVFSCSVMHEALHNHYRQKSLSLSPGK
VL: DIQMTQSPSSLSASVGDRVTITCKASQDVGAAVAWYQQKPGKAPKLLIYWASTRHTGVPSRFSGSGSGTDFTLTISSLQPEDFATYYCQQYINYPLTFGGGTKVEIK
notes: also called SF2 antibody with T437R
As to B1, the EC50 in the assay with human FcγRI (NM_000566) is 0.24 µg/mL; in assay [1], 4.13 µg/mL; in assay [2], over 10 µg/mL; in assay [3], 1.14 µg/mL. Moreover, the IC50 in assay [4] came out at 1.1 µg/mL.

B2: OX40SF2IgG1T437R/K248E (antibody)
heavy: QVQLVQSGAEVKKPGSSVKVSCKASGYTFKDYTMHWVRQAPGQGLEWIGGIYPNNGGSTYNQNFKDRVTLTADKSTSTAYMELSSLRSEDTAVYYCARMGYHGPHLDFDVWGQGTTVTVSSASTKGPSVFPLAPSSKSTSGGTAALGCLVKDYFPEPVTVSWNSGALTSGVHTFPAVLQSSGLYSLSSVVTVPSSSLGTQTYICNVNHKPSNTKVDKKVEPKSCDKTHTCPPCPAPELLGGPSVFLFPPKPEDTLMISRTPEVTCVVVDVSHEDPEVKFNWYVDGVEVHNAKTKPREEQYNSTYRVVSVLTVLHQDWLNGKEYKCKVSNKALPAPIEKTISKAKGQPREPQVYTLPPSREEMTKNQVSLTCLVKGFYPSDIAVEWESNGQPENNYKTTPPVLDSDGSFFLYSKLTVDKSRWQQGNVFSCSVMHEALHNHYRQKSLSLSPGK
VL: B1 VL
Regarding B2, the EC50 with human FcγRI (NM_000566) is 0.248 µg/mL; in assay [1] it was 3.39 µg/mL; in assay [2] it was over 10 µg/mL; in assay [3], 1.56 µg/mL. For the same molecule, the concentration for half-maximal inhibition (IC50) in assay [4] is 1.6 µg/mL.

B3: OX40SF2IgG1 (antibody)
chain 1: not shown
chain 2: DIQMTQSPSSLSASVGDRVTITCKASQDVGAAVAWYQQKPGKAPKLLIYWASTRHTGVPSRFSGSGSGTDFTLTISSLQPEDFATYYCQQYINYPLTFGGGTKVEIKRTVAAPSVFIFPPSDEQLKSGTASVVCLLNNFYPREAKVQWKVDNALQSGNSQESVTEQDSKDSTYSLSSTLTLSKADYEKHKVYACEVTHQGLSSPVTKSFNRGEC
With B3, the EC50 was 0.326 µg/mL in the assay with human FcγRI (NM_000566), 4.56 µg/mL in assay [1], over 10 µg/mL in assay [2] and 0.744 µg/mL in assay [3].

A word on the EC50: it is the midpoint of the concentration-response curve. High values mean a need for much substance, low ones an effect from little substance. The term IC50 denotes the concentration needed to halve the response being measured.
